# Experiment: soluble on expression in E. coli; label from the status in PepcDB or PDB records
row,Sequence,soluble on expression in E. coli
1,MGSDKIHHHHHHMTPSMVEDVRIEQLWIPDSLDGPDSADFLAAVEVGRKVRMQTWGSDDLAYTPLEKLLEFADPYERQVILVARVEGNIVGTVDIALPLADNLDLAEFTLDILPEFQRQGVGRQLLEAAEQFARAEGRSMILIDTNHPGVSLSSSADDQLVPGSGLGFVPMGSREVEFARKTGYTLQHIEQFSSCLLPLDTKLVAELSDEAEQANAGRYRLHHWTDRCPDIWLEGVAALENQAGGDTEPSTRTDEQMVFDGAMIRKAEDATIAQGRRTVVTAVEHIATGTLVGLTTISVLSQRQDVVFQDDTVVMQEHRGNKLGLLIKVANMVRLTEQFPDARVIYTWNAPENRYLLKVNQQLGFNTAGVTGIWQKDLPDLGPSSS,not soluble
2,MGSDKIHHHHHHMTPYRDNTPHLARDNHLLFTELARDYCLSMPISFKEALDRAQDATGLSMRKLADKAGVSYEQLKKVRQGKSQTTNAEDALKIATAVGVSFEQFMSGEFDASPTISIAGKVGAGAQVPVFDAYEKGDGPQVECPPGIGPHGVVAVEVEGDSMEPVYSAGDLLFYSRNGHDSVPDDVIGYKCVCEDADGMGWVKQVKAGDEPGLFHLISLNPTGANMWNVRLKWAARVRLHWPAEFARKK,not soluble
3,MGSDKIHHHHHHMTQPFKDAIGICKAIMRNGYDAYVVNTQLQSEILDQDCLEIDIACEPGYVELGKIFPGLEMSGEDGVVGTLREGGTLFRFYHTDTDDSSHPEATLARVTPTMLRRLEAKGTLPASLACPFIPSSAETYQGFDDFSKGDIRFEGVPDETLRRSYVLGVRAMRIAANFDLPIEPNSWMAIVRSASRILDYVPVTEIMDEWRKVEAENMYKFVQLMFDSMLLHGLIPELAALSRIRHLRTPEAGEETVLDHTIECMRRYPEELPFDWLGTVATMFHDVGKLYAAEYYNGKWTFYQHHRIGAKVTRKILRRLHFLPEDVDLICHLVRNHMRFHFMLTDKGIRRFKALDEYPRLIEMARADIKARDGNYTHFNHNMKYLERAETPEQMLEPLLNGNEIMEFTGLKPGPYVGVIRDALLKAQVTGEVTSMEEAIEYVKTYSERAPR,not soluble
4,MGSDKIHHHHHHMTQRHSRILLFVVNTPEFFLSHRLPIAIAAHKAGYEVHVASAEGDGVQAVLAHGFVHHSIGFARSGQNPWVEFRTLVSLVQVMRRVQPDIVHLITIKPVLYGGIAARLVRVPAVVSAVSGLGTVFLAHTWATRLRRWFIIELYKAAFKQRSLAVIFQNPDDRDTLISSGAIQSGDTRMIRGSGVSLDDYPCVTEPEGKPVAVMAARLLRNKGVVEFVGAARILRDRGVDVDMRLIGSPDLDNPASVTELELERWKSESVVTLMGYRKDIAHQYASSNIVCLPSYYGEGLPKSLVEAAACGRAVVTTDHPGCRDAILPDETGVLIPIKDSVALANAIQRLIENPDLRRKMGKAGRELAEEAFSIDQIVEQHLKIYDEVMATVRNGSLRQ,not soluble
5,MGSDKIHHHHHHMTRILLRNKLDECLAAWQKAGFSVLAPVKRHEMSCFGEVQKSGDMALDLVLTERTIKDQFFPQTEPLIKYRIGKQQIDSETMTPPEKKRVFFGVRPCDASGLAIDDPLFGWDYKDDYWFRRREKSVIVTIACAQADDFCMCTSVKLSPDSTKGADVMLRPLSDGSGWQVEAVSDRGTALVDTVSSLLQESSAEAAPVPQVAEKFDVEKVMEWLADKENFESQFWKDIALRCVGCGSCTFLCPTCHCFDIQDEGDTYQGIRRKNWDSCSFPLFTMHTSGHNPRNTQSTRWRQRIMHKFNYYRGKFGVNSCSGCGRCTRQCPVDMGITETLQAITNLPR,not soluble
6,MGSDKIHHHHHHMTRRPPLINRLGATPVHPERDPAHPLVVFGDNRFCAGELLDVQKMAGPHMHSQIELNFVLEGSMTYWFDGRELTISEGRLCLFWGMIPHQVIDRREGTRFICLYVPMSVFLGLASLSQFRDSVFRGAVIEALHLRAWDREIFLRWRDELLGGDEGDIEIVRSELTARLMRIERDGWRDLREQGSALASLGQRDAGWMLHVEKMLRFIGEHAPDTISAEDVGRAAGLHPNYAMSLFKRAVGTTINQAIIRHRLDTAQSLLISSDMPITEVAYESGFGSLSTFYEAFQRRFMEKPVQYRRRMRAKGTAAQSIA,not soluble
7,MGSDKIHHHHHHMTRYQHLATLLAERIEQGLYRHGEKLPSVRSLSQEHGVSISTVQQAYQTLETMKLITPQPRSGYFVAQRKAQPPVPPMTRPVQRPVEITQWDQVLDMLEAHSDSSIVPLSKSTPDVEAPSLKPLWRELSRVVQHNLQTVLGYDLLAGQRVLREQIARLMLDSGSVVTADDIIITSGCHNSMSLALMAVCKPGDIVAVESPCYYGSMQMLRGMGVKVIEIPTDPETGISVEALELALEQWPIKGIILVPNCNNPLGFIMPDARKRAVLSLAQRHDIVIFEDDVYGELATEYPRPRTIHSWDIDGRVLLCSSFSKSIAPGLRVGWVAPGRYHDKLMHMKYAISSFNVPSTQMAAATFVLEGHYHRHIRRMRQIYQRNLALYTCWIREYFPCEICITRPKGGFLLWIELPEQVDMVCVARQLCRMKIQVAAGSIFSASGKYRNCLRINCALPLSETYREALKQIGEAVYRAME,not soluble
8,MGSDKIHHHHHHMTSAANLVRITQPAISRLIRDLEEEIGISLFERTGNRLRPTREAGILFKEVSRHFNGIQHIDKVAAELKKSHMGSLRVACYTAPALSFMSGVIQTFIADRPDVSVYLDTVPSQTVLELVSLQHYDLGISILAGDYPGLTTEPVPSFRAVCLLPPGHRLEDKETVHATDLEGESLICLSPVSLLRMQTDAALDSCGVHCNRRIESSLALNLCDLVSRGMGVGIVDPFTADYYSANPVIQRSFDPVVPYHFAIVLPTDSPPPRLVSEFRAALLDALKALPYETI,not soluble
9,MGSDKIHHHHHHMTSVEPTKAVLFLQGPPSILWTEFARAFEQAGVKTHHVNFTLGDFLFWRKRGAKNYRGSFSKWPAYLRRLIAEKGITDIVYYADRLPYHAKAAEIGEELGVRCHAVEWGYLRPDWLTFERDGMGRFSHFPNDPKAIRAIAAKVEEPDIAVKYPHTFGQEAFNEVIYNLLNFFGRPFYPLYNADKYYSALVDYLPWLLKAGVKPARLPEGFLEDGQPPFYLVALQLQSDYQIRANSPYRHLRDMMRQVIASFVKNAPAGSKLLFKQHPLDNGLERWHKVLRHIAREFKIEDRVVFIEEGDLHDILQKTAGVVIVNSTVGLHSLRAQKPTIVLGCAVFDVPGLTHQGRLDDFWKRPEPVDPELMRDLVKAMAATIQIKGDFFNKAGRQAAIGAMVQRVIEGTVNMPDAFIDPPPRLTSPKGILTVLGRPVELDWEEDAAVPDMTYARSGPIR,not soluble
10,MGSDKIHHHHHHMTTDGQLAYQQTCDYPIEERQSEQQVIRQYLPLIKRIVSQMRSHCGVMLSLEDMEQIGMMALLESSRRYPGELDNGFISFAGQRIRGAILDELRRQDWRPRPVRQQAHELNDVVRRLSREMGREPSDLEVASALGLSAEDYRERLYSTQAESMKSLDELLLVGEHPVDRGNDVEQLMLKQTLIKVISKLNEREQLILSLYYHHELNLKEIAMALGLTETRICQLHKSAISQLKTILQR,not soluble
11,MGSDKIHHHHHHMTTHTKPGLRPANPNFSSGPCAKRPGWSVEALKNAALGRSHRAKIGKTKLEQAIELTREILQVPADHRIGIVPASDTGAVEMALWSLLGERGVDMVAWESFGSGWVTDVVKQLKLPDVRKLEAGYGELPDLAKIDFDRDVVFTWNGTTSGVRVPNGDFIPADRKGLTICDATSAAFAQRLDFEKLDVVTFSWQKVLGGEGAHGMLILSPRAVARLESYKPAWPLPKIFRLTSGGKLIEGIFKGETINTPSMLCVEDYLDALHWAKSIGGLDVLVARADANAAVLDGFVDKSSWLGHLAVQPATRSNTSVCLSFTDPDVAALDADGQATFAKGLVSALDKEGVAYDIGSYRDAPPGLRIWCGATVETSDLETLLPWLDWAFAAQKASLKAAA,not soluble
12,MGSDKIHHHHHHMTTNNASPEAGHIMQTRTVDLDGQVLRVGIRPGSGDLPPLLMFNGIGANLELVEPFVDALPDVEVIIFDIPGAGGSPAPLFPYRFSNLCVMADKLLSHLGYAGPVDTLGVSWGGALAQEFARLYPQRCRRLVLAATSPGVLMVPGSPSVLTKMIGIRRYTDAEYLRRVGGDIYGGAFRDDPSLLDVHGGHMRPPRGRGYLYQLLAAWGWSSLPWLRALKQRTLVLHGSDDPIVPLINAKILSGCIPDSALHVFHDDGHLFLLTAARESARVVGEFLREGR,not soluble
13,MGSDKIHHHHHHMTTPFKRIHLIVMDSVGIGEGPDAAAFNDEGSHTLKHTLEGFKQKLPHLEQLGLGNIAPLPVVSKVTHPGAFYTKLSEASVGKDTMTGHWEIMGLNIMQPFKVYPNGFPAELVKEIESMTGRKVVANRPASGTQIIDEWGEHQMKTGDLIVYTSADPVLQIAAHEDVIPLEELYEICEKVRELTKDPKYLIGRIIARPYVGEPGNFTRTSNRHDYALKPFGRTVMNSLKDSGYDVIAIGKINDIYDGEGVTEAIRTKNNMDGMDQLIEVVKKDFEGISFLNLVDFDALYGHRRDKEGYAQAIKDFDLRLPELMNHLREDDLVIITADHGNDPIAKGTDHTREYIPLLMFSPKIKDYHELSQDTTFSSIGVTIADNFNVELPKYGKSYLKEMGVEHQ,not soluble
14,MGSDKIHHHHHHMTTRILICDDSALARKQMAKALPPGLADDILFAGDGKEALTILRDQKAELLFLDLNMPELDGYQVLEHIRSEDLPVLTIVVSGDIQPEARERVRKLGAIDFIKKPTDTGVVSRLLKEYGFYRPSELEDTALNDASLHSREAAAPEISVSLSDYLQEISNVAMGRSSDLLARLLKVFVKQPIPKVAFIANSELHMAISAAQRAENYSAVCQGFTGAGIAGEALLLFEDASFREMAELLHYDVLEGESVNVEVLMDMSSILFGAFINGIGDQLDLKLGLGHPTVLGQHRPVNELLDHHSKREEQLLCIEISYALENRDIRCNMLILLTEDSIPFLEKRLAYLVD,not soluble
15,MGSDKIHHHHHHMTTSAVSIPMPSIPRRRRSPEDVLAAAPVPGPKKVLLAAPRGYCAGVDRAVIAVEKALEHYGPPVYVRKQIVHNVHVVSSLEEKGAIFVDETDEVPEGALVIFSAHGVSPAVVQSAEDRGLRTIDATCPLVTKVHREAVRFAKDDFDILLIGHDGHEEVEGTAGEAPEHIQIINGPHEVDKVTVRDPEKVIWLSQTTLSVDETMETVRLLKERFPTLQDPPSDDICYATTNRQVAIKKISPQADLVIVVGSANSSNSVRLVEVALEYGAKASYRVDFANEVDEAWFEGVATVGVTSGASVPEVLVKDVLRLLADYGYGTVEEVVTAEEDLLFSLPKELRATLKKSGDVTRALGGRGARA,not soluble
16,MGSDKIHHHHHHMTTSTNERTTRAELQDAPRVARLHPQPDYRISVGGRDLSRLFAPRLVSLSISESRSDEADTIDIVLDDSKNDLDIPKRGATIKASIGWAGEPLVDKGSFVVNEVEHSGAPDIITIRARSAAMTSGMQERREKSWHRQTIGSIVHAIAGRYSLSPTVGDALAKILIAHIDQTHESDMSFLTRLAKRYDAVMNVKDLRLLFMPIGTGQTATGKKLDVLELTRASGDSHRYHVSERENYAAVRAHYHSTGRAKRKSVIVGGENNKNVKVLPEDYATEAEARAAAQAEFKRMQRSQATMSYTLARGRAELFPEMPVTVSGFKPEIDETPWLVKKATHTIGDVGFTTALELEMRDDPTTERHRSHFQGSR,not soluble
17,MGSDKIHHHHHHMTVAIDRTKGDQSTPGNIIRGEGYALIRNSEATPDPDKVIHIPCADSFSVIVQLRDFNSHRLWNGNKLVFDGGHPRKSISIAYLGDEIKCQHRTTYDNVRFMLPRASIKEFLYEEGQRASAEPERIIGVDDPVVYHLALALLPSFARAGERNELFIEQVMLALLTHVQDRFASTQVPVCTGKGLAPWQLRRAKELIAGHLAEGVSVARLAEECGLSRSYFTKAFKCSTGVSPHEWLMRMRVDRAKELMLGSDEPLSQIGVACGFSDQPHFSRIFLRLAGASPSTWRRVKRQRTDAAL,not soluble
